± gives the standard error. Fewer inactive variants are shown than the library holds.
B1: glmS ribozyme (parent)
chain: AUAAAAGCGCCAGAACUACAGAAAUGUAGUUGACGAGGAGGAGGUUUAUCGAAUUUUCGGCGGAUGCCUCCAAA

Columns and labels:
Details in all cases: with glucosamine-6-phosphate
[1] = variants of: B1; assay: self-cleavage kobs at 40 uM GlcN6P; higher = faster cleavage; RNA array
Method in brief: (§1)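 Barcoded ribozyme variants on sequenced MiSeq chips were transcribed in situ by E. coli RNA polymerase and followed at 37 °C through a hybridised Cy3 probe. Glucosamine-6-phosphate at 40 μM to 10 mM in HEPES/KCl/Mg(OAc)2 buffer was flowed in, and tiles were imaged over ~14 h. Signals were normalised to baseline and to non-cleaving reference variants, and per-tile medians were fit to one- or two-exponential decays to give kobs. Weighted Michaelis–Menten fits across concentrations gave kcat and KM.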

[2] = variants of: B1; assay: self-cleavage kobs at 160 uM GlcN6P; higher = faster cleavage; RNA array
Method in brief: as §1

[3] = variants of: B1; assay: self-cleavage kobs at 640 uM GlcN6P; higher = faster cleavage; RNA array
Method in brief: as §1

[4] = variants of: B1; assay: self-cleavage kobs at 2500 uM GlcN6P; higher = faster cleavage; RNA array
Method in brief: as §1

[5] = variants of: B1; assay: self-cleavage kobs at 10000 uM GlcN6P; higher = faster cleavage; RNA array
Method in brief: as §1

Variant	self-cleavage kobs at 40 uM GlcN6P [1] [s⁻¹]	self-cleavage kobs at 160 uM GlcN6P [2] [s⁻¹]	self-cleavage kobs at 640 uM GlcN6P [3] [s⁻¹]	self-cleavage kobs at 2500 uM GlcN6P [4] [s⁻¹]	self-cleavage kobs at 10000 uM GlcN6P [5] [s⁻¹]
G40C U54G	0.000126 ± 1.3e-05	0.000127 ± 3e-05	0.000766 ± 0.00015	0.0025 ± 0.00059	0.00251 ± 0.00031
C50U A64C C67A	< 1e-05	–	< 1e-05	< 1e-05	–
A33C C68A	< 1e-05	–	< 1e-05	< 1e-05	< 1e-05
C8G C67U	< 1e-05	< 1e-05	< 1e-05	< 1e-05	–
C34U U45A	< 1e-05	< 1e-05	< 1e-05	< 1e-05	< 1e-05
U30A C68A	< 1e-05	–	–	–	–
A6G G41U C50G	< 1e-05	–	–	< 1e-05	< 1e-05
U31C A39U U54C C71U	5.15e-05 ± 1.1e-05	–	–	0.000671 ± 0.00024	0.00213 ± 0.00023
A53C C68A	< 1e-05	< 1e-05	< 1e-05	–	–
C10G C16G C34U G43C A52C U55C	< 1e-05	–	–	–	< 1e-05
A42G G63C	< 1e-05	< 1e-05	< 1e-05	< 1e-05	< 1e-05
C8U A64G C68U	< 1e-05	–	–	–	< 1e-05
C11U A36C C61U	< 1e-05	–	< 1e-05	–	–
A1C	0.00111 ± 0.00028	0.00363 ± 0.00095	0.0192 ± 0.0042	0.0128 ± 0.0042	0.0709 ± 0.033
G37U G41A C68U	< 1e-05	–	–	–	–
G7U A33C	< 1e-05	< 1e-05	< 1e-05	< 1e-05	< 1e-05
A12C U46C C50G G63U C67G C68U	0.000202 ± 7.2e-05	–	–	–	0.000454 ± 0.00012
A15C G35U C50U	< 1e-05	–	–	< 1e-05	< 1e-05
G9C C71G	< 1e-05	< 1e-05	< 1e-05	< 1e-05	< 1e-05
A6G C50A U65G	< 1e-05	–	–	–	–
U31G G59C	< 1e-05	< 1e-05	< 1e-05	–	< 1e-05

— the supplement of paper PMC7125110
